Substrate: Nc1ncnc2c1ncn2[C@@H]1O[C@H](COP(=O)(O)OP(=O)(O)OP(=O)(O)O)[C@@H](O)[C@H]1O
Test: NADH-coupled ATPase assay (pyruvate kinase / lactate dehydrogenase), fit with Hill coefficient
Format: biochemical, Mycolicibacterium smegmatis
Conditions: 0.1 μM complex in 0.05% DDM micelles, 20 mM Tris-HCl pH 8.0, 150 mM NaCl, 5 mM MgCl2, 10% glycerol, 37 °C, Michaelis-Menten with Hill term (n = 1.28 ± 0.57)

B1: YrbE1A/B-MceG (core ABC transporter of the Mce1 system) (Mycolicibacterium smegmatis MC2 155) (protein)
chain: MGVQIDVTGLSKSFGSSKIWEDVTMSIPAGEVSVLLGPSGTGKSVFLKSLIGLLRPERGSIVIDGTDILQCSAKELYEIRTLFGVLFQDGALFGSMNIYDNTAFPLREHTKKSESEIRKIVMEKLDLVGMPNDGHKFPGEISGGMRKRAGLARALVLDPEIILCDEPDSGLDPVRTAYLSQLLIDINAQIDATVLIVTHNINIARTVPDNMGMLFRKQLVMFGPREVLLTSEEPVVKQFLNGRRIGPIGMSEEKDEATAAAEQALVDAGQHDGGVEEIEGVPPQLQATPGMPERKAVARRKARVREILHTLPPAAQAAILEELDRDQPQLSAPTTQTAATAPVENYDDSPTGVIEVPKQA
notes: YrbE1A, His6-YrbE1B and MceG co-expressed in E. coli BL21(λDE3); DDM-solubilised, TALON and SEC purified; with ABC transporter permease YrbE1A (Mce1 transmembrane domain protein); ABC transporter permease YrbE1B (Mce1 transmembrane domain protein)
Km: 284 ± 311 µM
kcat: 0.184 ± 0.125 μM ATP s^−1/μM complex

Reference: publication PMC10517005, “A conserved membrane protein negatively regulates Mce1 complexes in mycobacteria” (Nature Communications, 2023)
